US20230235013A1 (MABSOLVE, published 2023)

These binders were tested against T1, Histidine-tagged recombinant human FcγRI (CD64) (human, UniProt P12314 16-288) (assay: SPR, culture supernatant, captured His-FcγRI;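 further: biacore T200 SPR at 25 °C, anti-His capture, supernatants of HEK293 cells expressing IgG1 Fc variants injected 1 min, reference-subtracted response read 55 s after injection start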).
T1 construct: bought; also called Sino Biological Cat. No. 12056-H08H

Row | Mean binding response [RU] | Binder
1 | 34.3 | anti-CD20 human IgG1 L234A/L235Q/G236R (antibody, also called 1-12; copies: 2 + 2) heavy: not shown light: QIVLSQSPAILSASPGEKVTMTCRASSSVSYIHWFQQKPGSSPKPWIYATSNLASGVPVRFSGSGSGTSYSLTISRVEAEDAATYYCQQWTSNPPTFGGGTKLEIKRTVAAPSVFIFPPSDEQLKSGTASVVCLLNNFYPREAKVQWKVDNALQSGNSQESVTEQDSKDSTYSLSSTLTLSKADYEKHKVYACEVTHQGLSSPVTKSFNRGEC
2 | 34.2 | anti-CD20 human IgG1 L234A/L235K/G236R (antibody, also called 1-8; copies: 2 + 2) heavy: not shown light: QIVLSQSPAILSASPGEKVTMTCRASSSVSYIHWFQQKPGSSPKPWIYATSNLASGVPVRFSGSGSGTSYSLTISRVEAEDAATYYCQQWTSNPPTFGGGTKLEIKRTVAAPSVFIFPPSDEQLKSGTASVVCLLNNFYPREAKVQWKVDNALQSGNSQESVTEQDSKDSTYSLSSTLTLSKADYEKHKVYACEVTHQGLSSPVTKSFNRGEC
3 | 27.4 | anti-CD20 human IgG1 L234A/L235M/G236R (antibody, also called 1-10; copies: 2 + 2) heavy: not shown light: QIVLSQSPAILSASPGEKVTMTCRASSSVSYIHWFQQKPGSSPKPWIYATSNLASGVPVRFSGSGSGTSYSLTISRVEAEDAATYYCQQWTSNPPTFGGGTKLEIKRTVAAPSVFIFPPSDEQLKSGTASVVCLLNNFYPREAKVQWKVDNALQSGNSQESVTEQDSKDSTYSLSSTLTLSKADYEKHKVYACEVTHQGLSSPVTKSFNRGEC
4 | 22.1 | anti-CD20 human IgG1 L234D/L235E/G236R (antibody, also called 1-19; copies: 2 + 2) heavy: QVQLQQPGAELVKPGASVKMSCKASGYTFTSYNMHWVKQTPGRGLEWIGAIYPGNGDTSYNQKFKGKATLTADKSSSTAYMQLSSLTSEDSAVYYCARSTYYGGDWYFNVWGAGTTVTVSSASTKGPSVFPLAPSSKSTSGGTAALGCLVKDYFPEPVTVSWNSGALTSGVHTFPAVLQSSGLYSLSSVVTVPSSSLGTQTYICNVNHKPSNTKVDKKVEPKSCDKTHTCPPCPAPEDERGPSVFLFPPKPKDTLMISRTPEVTCVVVDVSHEDPEVKFNWYVDGVEVHNAKTKPREEQYNSTYRVVSVLTVLHQDWLNGKEYKCKVSNKALPAPIEKTISKAKGQPREPQVYTLPPSRDELTKNQVSLTCLVKGFYPSDIAVEWESNGQPENNYKTTPPVLDSDGSFFLYSKLTVDKSRWQQGNVFSCSVMHEALHNHYTQKSLSLSPGK light: QIVLSQSPAILSASPGEKVTMTCRASSSVSYIHWFQQKPGSSPKPWIYATSNLASGVPVRFSGSGSGTSYSLTISRVEAEDAATYYCQQWTSNPPTFGGGTKLEIKRTVAAPSVFIFPPSDEQLKSGTASVVCLLNNFYPREAKVQWKVDNALQSGNSQESVTEQDSKDSTYSLSSTLTLSKADYEKHKVYACEVTHQGLSSPVTKSFNRGEC
5 | 11.9 | anti-CD20 human IgG1 L234D/G236R (antibody, also called 1-24; 2-8; copies: 2 + 2) heavy: not shown light: QIVLSQSPAILSASPGEKVTMTCRASSSVSYIHWFQQKPGSSPKPWIYATSNLASGVPVRFSGSGSGTSYSLTISRVEAEDAATYYCQQWTSNPPTFGGGTKLEIKRTVAAPSVFIFPPSDEQLKSGTASVVCLLNNFYPREAKVQWKVDNALQSGNSQESVTEQDSKDSTYSLSSTLTLSKADYEKHKVYACEVTHQGLSSPVTKSFNRGEC
6 | 28 | anti-CD20 human IgG1 L234A/L235D/G236R (antibody, also called 1-3; copies: 2 + 2) heavy: not shown light: QIVLSQSPAILSASPGEKVTMTCRASSSVSYIHWFQQKPGSSPKPWIYATSNLASGVPVRFSGSGSGTSYSLTISRVEAEDAATYYCQQWTSNPPTFGGGTKLEIKRTVAAPSVFIFPPSDEQLKSGTASVVCLLNNFYPREAKVQWKVDNALQSGNSQESVTEQDSKDSTYSLSSTLTLSKADYEKHKVYACEVTHQGLSSPVTKSFNRGEC

Further lines, the binder ahead of its results:

Row | Binder | Mean binding response [RU]
7 | anti-CD20 human IgG1 L234A/L235A/G236R (antibody, also called 1-2; 2-2; copies: 2 + 2) heavy: not shown light: QIVLSQSPAILSASPGEKVTMTCRASSSVSYIHWFQQKPGSSPKPWIYATSNLASGVPVRFSGSGSGTSYSLTISRVEAEDAATYYCQQWTSNPPTFGGGTKLEIKRTVAAPSVFIFPPSDEQLKSGTASVVCLLNNFYPREAKVQWKVDNALQSGNSQESVTEQDSKDSTYSLSSTLTLSKADYEKHKVYACEVTHQGLSSPVTKSFNRGEC | 30.7
8 | anti-CD20 human IgG1 L234A/L235G/G236R (antibody, also called 1-5; copies: 2 + 2) heavy: not shown light: QIVLSQSPAILSASPGEKVTMTCRASSSVSYIHWFQQKPGSSPKPWIYATSNLASGVPVRFSGSGSGTSYSLTISRVEAEDAATYYCQQWTSNPPTFGGGTKLEIKRTVAAPSVFIFPPSDEQLKSGTASVVCLLNNFYPREAKVQWKVDNALQSGNSQESVTEQDSKDSTYSLSSTLTLSKADYEKHKVYACEVTHQGLSSPVTKSFNRGEC | 27.6
9 | anti-CD20 human IgG1 L234A/L235V/G236R (antibody, also called 1-16; copies: 2 + 2) heavy: not shown light: QIVLSQSPAILSASPGEKVTMTCRASSSVSYIHWFQQKPGSSPKPWIYATSNLASGVPVRFSGSGSGTSYSLTISRVEAEDAATYYCQQWTSNPPTFGGGTKLEIKRTVAAPSVFIFPPSDEQLKSGTASVVCLLNNFYPREAKVQWKVDNALQSGNSQESVTEQDSKDSTYSLSSTLTLSKADYEKHKVYACEVTHQGLSSPVTKSFNRGEC | 25.8
10 | anti-CD20 human IgG1 L234A/L235H/G236R (antibody, also called 1-6; copies: 2 + 2) heavy: not shown light: QIVLSQSPAILSASPGEKVTMTCRASSSVSYIHWFQQKPGSSPKPWIYATSNLASGVPVRFSGSGSGTSYSLTISRVEAEDAATYYCQQWTSNPPTFGGGTKLEIKRTVAAPSVFIFPPSDEQLKSGTASVVCLLNNFYPREAKVQWKVDNALQSGNSQESVTEQDSKDSTYSLSSTLTLSKADYEKHKVYACEVTHQGLSSPVTKSFNRGEC | 23
11 | anti-CD20 human IgG1 L234A/G236R (antibody, also called 1-9; copies: 2 + 2) heavy: not shown light: QIVLSQSPAILSASPGEKVTMTCRASSSVSYIHWFQQKPGSSPKPWIYATSNLASGVPVRFSGSGSGTSYSLTISRVEAEDAATYYCQQWTSNPPTFGGGTKLEIKRTVAAPSVFIFPPSDEQLKSGTASVVCLLNNFYPREAKVQWKVDNALQSGNSQESVTEQDSKDSTYSLSSTLTLSKADYEKHKVYACEVTHQGLSSPVTKSFNRGEC | 8
12 | anti-CD20 human IgG1 L234A/L235R/G236R (antibody, also called 1-13; copies: 2 + 2) heavy: not shown light: QIVLSQSPAILSASPGEKVTMTCRASSSVSYIHWFQQKPGSSPKPWIYATSNLASGVPVRFSGSGSGTSYSLTISRVEAEDAATYYCQQWTSNPPTFGGGTKLEIKRTVAAPSVFIFPPSDEQLKSGTASVVCLLNNFYPREAKVQWKVDNALQSGNSQESVTEQDSKDSTYSLSSTLTLSKADYEKHKVYACEVTHQGLSSPVTKSFNRGEC | 26.9
13 | anti-CD20 human IgG1 L234A/L235E/G236R (antibody, also called 1-4; copies: 2 + 2) heavy: not shown light: QIVLSQSPAILSASPGEKVTMTCRASSSVSYIHWFQQKPGSSPKPWIYATSNLASGVPVRFSGSGSGTSYSLTISRVEAEDAATYYCQQWTSNPPTFGGGTKLEIKRTVAAPSVFIFPPSDEQLKSGTASVVCLLNNFYPREAKVQWKVDNALQSGNSQESVTEQDSKDSTYSLSSTLTLSKADYEKHKVYACEVTHQGLSSPVTKSFNRGEC | 31.7
14 | anti-CD20 human IgG1 L234D/L235A/G236R (antibody, also called 1-17; copies: 2 + 2) heavy: not shown light: QIVLSQSPAILSASPGEKVTMTCRASSSVSYIHWFQQKPGSSPKPWIYATSNLASGVPVRFSGSGSGTSYSLTISRVEAEDAATYYCQQWTSNPPTFGGGTKLEIKRTVAAPSVFIFPPSDEQLKSGTASVVCLLNNFYPREAKVQWKVDNALQSGNSQESVTEQDSKDSTYSLSSTLTLSKADYEKHKVYACEVTHQGLSSPVTKSFNRGEC | 29.6
15 | anti-CD20 human IgG1 L234D/L235D/G236R (antibody, also called 1-18; copies: 2 + 2) heavy: QVQLQQPGAELVKPGASVKMSCKASGYTFTSYNMHWVKQTPGRGLEWIGAIYPGNGDTSYNQKFKGKATLTADKSSSTAYMQLSSLTSEDSAVYYCARSTYYGGDWYFNVWGAGTTVTVSSASTKGPSVFPLAPSSKSTSGGTAALGCLVKDYFPEPVTVSWNSGALTSGVHTFPAVLQSSGLYSLSSVVTVPSSSLGTQTYICNVNHKPSNTKVDKKVEPKSCDKTHTCPPCPAPEDDRGPSVFLFPPKPKDTLMISRTPEVTCVVVDVSHEDPEVKFNWYVDGVEVHNAKTKPREEQYNSTYRVVSVLTVLHQDWLNGKEYKCKVSNKALPAPIEKTISKAKGQPREPQVYTLPPSRDELTKNQVSLTCLVKGFYPSDIAVEWESNGQPENNYKTTPPVLDSDGSFFLYSKLTVDKSRWQQGNVFSCSVMHEALHNHYTQKSLSLSPGK light: QIVLSQSPAILSASPGEKVTMTCRASSSVSYIHWFQQKPGSSPKPWIYATSNLASGVPVRFSGSGSGTSYSLTISRVEAEDAATYYCQQWTSNPPTFGGGTKLEIKRTVAAPSVFIFPPSDEQLKSGTASVVCLLNNFYPREAKVQWKVDNALQSGNSQESVTEQDSKDSTYSLSSTLTLSKADYEKHKVYACEVTHQGLSSPVTKSFNRGEC | 22
16 | anti-CD20 human IgG1 L234A/L235I/G236R (antibody, also called 1-7; copies: 2 + 2) heavy: not shown light: QIVLSQSPAILSASPGEKVTMTCRASSSVSYIHWFQQKPGSSPKPWIYATSNLASGVPVRFSGSGSGTSYSLTISRVEAEDAATYYCQQWTSNPPTFGGGTKLEIKRTVAAPSVFIFPPSDEQLKSGTASVVCLLNNFYPREAKVQWKVDNALQSGNSQESVTEQDSKDSTYSLSSTLTLSKADYEKHKVYACEVTHQGLSSPVTKSFNRGEC | 28.4
17 | anti-CD20 human IgG1 L234D/L235G/G236R (antibody, also called 1-20; copies: 2 + 2) heavy: QVQLQQPGAELVKPGASVKMSCKASGYTFTSYNMHWVKQTPGRGLEWIGAIYPGNGDTSYNQKFKGKATLTADKSSSTAYMQLSSLTSEDSAVYYCARSTYYGGDWYFNVWGAGTTVTVSSASTKGPSVFPLAPSSKSTSGGTAALGCLVKDYFPEPVTVSWNSGALTSGVHTFPAVLQSSGLYSLSSVVTVPSSSLGTQTYICNVNHKPSNTKVDKKVEPKSCDKTHTCPPCPAPEDGRGPSVFLFPPKPKDTLMISRTPEVTCVVVDVSHEDPEVKFNWYVDGVEVHNAKTKPREEQYNSTYRVVSVLTVLHQDWLNGKEYKCKVSNKALPAPIEKTISKAKGQPREPQVYTLPPSRDELTKNQVSLTCLVKGFYPSDIAVEWESNGQPENNYKTTPPVLDSDGSFFLYSKLTVDKSRWQQGNVFSCSVMHEALHNHYTQKSLSLSPGK light: QIVLSQSPAILSASPGEKVTMTCRASSSVSYIHWFQQKPGSSPKPWIYATSNLASGVPVRFSGSGSGTSYSLTISRVEAEDAATYYCQQWTSNPPTFGGGTKLEIKRTVAAPSVFIFPPSDEQLKSGTASVVCLLNNFYPREAKVQWKVDNALQSGNSQESVTEQDSKDSTYSLSSTLTLSKADYEKHKVYACEVTHQGLSSPVTKSFNRGEC | 27.3
